Assay results reported in the nanobody polyreactivity screen of Harvey et al. (2022).

Assay: yeast display, Sf9 membrane polyspecificity reagent, FACS + sequencing; frameworks hold sequencing errors
How it was run: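 Galactose-induced (36–48 hours) yeast carrying a synthetic nanobody display library were exposed to 10% biotinylated, detergent-solubilized Sf9 membrane reagent at 4 °C for 1 hour. FACS followed streptavidin microbead enrichment, using low and high (top ~1%) gates for expression (anti-HA) and reagent binding (streptavidin). Colony PCR, MiSeq 2 × 250 sequencing and CDR-length filtering followed. Labels for polyreactivity reflect the gate of origin.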

Sequence	polyreactivity (PSR sort gate)
QVQLVESGGGLVQAGGSLRLSCAASGSTFAYNAMGGYRKAPGKERELVATISTDGSTYADSVKGRFTISRDNAKNTVYLQMNSLKPEDTAVYYCNADGHPSDPGYDYWGQGTHVTVSS	low polyreactivity
QVQLVESGGGLVQAGGSLRLSCAASGSTFAYNAMGWYRQAPGKERELVAAISGSTTRTYYADSVKGRFTISRDNAKNTVYLQMNSLKPEDTAVYYCAAGIPFRQRLRRYYYWGQGTQVTVSS	high polyreactivity
QVQLVESGGGLVQAGGSLRLSCAASGSTFAYNAMGWYRQAPGKERELVASISQSGVSTYYADSVKGRFTISRDNAKNTVYLQMNSLKPEDTAVYYCNTEIYYRSYEDDYWGQGSQVTVSS	low polyreactivity
QVQLVESGGGLVQAGGSLRLSCAASGSTFAYNAMGWYRQAPGKERELVATITSGGSTSYADSVKGRFTISRDNAKNTVYLQMNSLKPEDTAVYYCAARKVTKSTYNYWGQGTQVTVSS	low polyreactivity
QVQLVESGGGLVQAGGSLRLSCAASGSTFAYNDMGWYRQAPGKERELVADIRSGGNTNYADSVKGRFTISRDNAKNTVYLHMNSLKPEATAVYYCATDGYRIDVYHPDYRYDYWGQGTQVTVSS	low polyreactivity
QVQLVESGGGLVQAGGSLRLSCAASGSTFAYNDMGWYRQAPGKERELVADIRSGGNTNYADSVKGRFTISRDNAKNTVYLQMNSLKPEDTAVYYCASDGYRIDVYHPDYRYDYWGQGTQVTVSS	low polyreactivity
QVQLVESGGGLVQAGGSLRLSCAASGSTFAYNTMGWYRKAPGKERELVAAITQLGGSTYADSVKGRFTISRDNAKNTVYLQINSLKPEENAVYYCAADGYTYKFDYWGQGTQVTVSS	low polyreactivity
QVQLVESGGGLVQAGGSLRLSCAASGSTFAYYAMGWYRQAPGKERELVARIRSSGVSTYYADSVKGRFTISRDNAKNTVYLQMNSLKPEDTAVYYCNKAYSGVRYDSWGQGTQVTVSS	low polyreactivity
QVQLVESGGGLVQAGGSLRLSCAASGSTFAYYTMGWYRQAPGKERELVAAISAGGGSTYYADSVKGRFTISRDNAKNTVYLQMNSLKPEDTAVYYCAVRVLIHTNTRRLDYWGQGTQVTVSS	high polyreactivity
QVQLVESGGGLVQAGGSLRLSCAASGSTFCYYGMGWYRQAPGTERELVAAISWSGGTFYADSVKGRFTISRDNAKNTVYLQMNSLKPEDTAVYYCATDYGGPITGYEYWGQGTQVTVSS	low polyreactivity
QVQLVESGGGLVQAGGSLRLSCAASGSTFDAYAMGWYRPAPGTERELVAGISTSGGSTYYADSVKGRFTISRDNAKYTVVLQMNSMIPEVYAVYYCGAGVFRYVDRYGDMEYWGQGTQVTVSS	low polyreactivity
QVQLVESGGGLVQAGGSLRLSCAASGSTFDAYAMGWYRQAPGKERELVAAITWSGGSTYYADSVKGRFTISRDNAKNTVYLQMNSLKPEDTAVYYCAAYYLIFYFEFDYWGQGTQVTVSS	low polyreactivity
QVQLVESGGGLVQAGGSLRLSCAASGSTFDAYAMGWYRQAPGKERQLVAAITHGGSTNYADSVKGRFTISRDNAKNTVYLQMNSLKPEDTAVYYCNAQHRTVWGIFGRFNYWGQATQVTVSS	low polyreactivity
QVQLVESGGGLVQAGGSLRLSCAASGSTFDDNAMGWYRQAPGKERELVAAINGDGITTYADSVKGRFTISRDNAKNTVYLQMNSMKPEDTAVYYCNTVGIGAWGYSYPDEDNYWGQGTQVTVSS	low polyreactivity
QVQLVESGGGLVQAGGSLRLSCAASGSTFDDNGMGWYRKAPGKERELVAGINSAGSTYYADSVKGRFTISRDNAKNTVYLQMNSLKPEDTAVYYCARRFLLKDRTKRAYGSWGQGTQVTVSS	low polyreactivity
QVQLVESGGGLVQAGGSLRLSCAASGSTFDDYAMGWYRQAPGKERELVAAINSDCGGTYYADSVKGRFTISRDNAKNTVYLQMNSLKPEDTAVYYCNVEYEDYYAQRYGYDYWGQGTQVTVSS	low polyreactivity
QVQLVESGGGLVQAGGSLRLSCAASGSTFDDYVMGWYRQAPGKERELVAGINSRGTSTDYADSVKGRFTISRDNAKNTVYLQLNSLKPEDTAVYYCAADDSHGYDYWGQGTQVTVSS	low polyreactivity
QVQLVESGGGLVQAGGSLRLSCAASGSTFDDYVMGWYRQAPGKERELVAGINSRGTSTDYAGSVKGRFTISRDNAKNTVYLQMNSLKPEDTAVYYCAADDSHGYDYWGQGTQVTVSS	low polyreactivity
QVQLVESGGGLVQAGGSLRLSCAASGSTFDENAMAWYRQAPGKEWELVAVISDSGGSTYYADSVKGRFTISRDNAKNTVYLQMNSLKPEDTAVYYCAADQSSLDYGNDYWGQGTQVTVSS	low polyreactivity
QVQLVESGGGLVQAGGSLRLSCAASGSTFDFNAMGWYRQAPGKERELVAAITSGGGSTYYADSLKGRFTISRDNAKNTVYLQMNSLKPEDTAVYYCAADDIVLRYDYWGQGTQVTVSS	low polyreactivity
QVQLVESGGGLVQAGGSLRLSCAASGSTFDFNAMGWYRQAPGKERELVAAITYSGGSTYYADSVKGRFTISRDNAKNTVYLQMNSLKPVDTAVYYCAAEDVYPGSIDMDYWGQGTQVTVSS	low polyreactivity
QVQLVESGGGLVQAGGSLRLSCAASGSTFDFYAMGWYRQAPGKERELVAAITYSGGSTYYADSVKGRFTISRDNAKNTVYLQMNSLKPEDTAVYYCAAARVWQYSDFFLYYYWGQGTQVTVSS	low polyreactivity

Sequence	polyreactivity (PSR sort gate)
QVQLVESGGGLVQAGGSLRLSCAASGSTFDGNAMGWYRQAPGKERELVAAITRAGRTSYADSVKGRFTISRDNAKNTVYLQMNSLKPEDTAVYYCAKGGYDYWGQGTQVTVSS	low polyreactivity
QVQLVESGGGLVQAGGSLRLSCAASGSTFDGNAMGWYRQAPGKERELVAAITYTTSSTYYADSVKGRFTISRDNAKNTVYLQMNSLKPEDTAVYYCAAGVNYRSPGVSKGRDYWGQGTQVTVSS	low polyreactivity
QVQLVESGGGLVQAGGSLRLSCAASGSTFDGNAMGWYRQAPGKERELVATITRRGGSTNYADSVKGRFTISRDNAKNTVYLQMNSLKPEDTAVYYCATADAHSSAAGEDYWGQGTQVTVSS	low polyreactivity
QVQLVESGGGLVQAGGSLRLSCAASGSTFDGNAMGWYRQAPGKESELVAAISWSGGSTYYADSVKGRFTISRDNAKNSVYLQLNSLKPEDTAVYYCNAVHYPYQHMGSWGQGTQVSVSS	low polyreactivity
QVQLVESGGGLVQAGGSLRLSCAASGSTFDGNAMGWYRQAPGTERELVATINSDDSKNYADSVKGRFTISRDNAKNTVYLQMNSLKPEDTAVYYCAARLYVTPILSYVERYTNDYWGQGTQVTVSS	low polyreactivity
QVQLVESGGGLVQAGGSLRLSCAASGSTFDGYALGWYRQAPGKERELVAAISKNGGRTYYADSVKGRFTISRDNAKNTVYLQMNSLKPEDTAVYYCAKDIIKYDYDYWGQGTQVTVSS	low polyreactivity
QVQLVESGGGLVQAGGSLRLSCAASGSTFDGYTMGWYRQAPGKERELVAAISWRGTSTYYADSVKGRFTISRYIAKNTVYLQMNSLKPEDTAVYYCAADAYSGYDYWGQGTQVTVSS	low polyreactivity
QVQLVESGGGLVQAGGSLRLSCAASGSTFDGYVMGWYRQAPGKEREFVAAISWSGGSTYYADSVKGRFTISRDNAKNTVYLQMNSLKPEDTAVYYCAARVRRQHGYWGQGTQVTVSS	high polyreactivity
QVQLVESGGGLVQAGGSLRLSCAASGSTFDINAMGWYRQAPGKEWELVAAITWSGDSTYYADSVKGRFTSSRDYAKHTVSLQMNSLKPEDTAVYYCAADYPYSYYEYSSYYYWGQGTQVTVSS	low polyreactivity
QVQLVESGGGLVQAGGSLRLSCAASGSTFDIYPMGWYRQAPGKERELVAAISWSGGRTYYADSVKGRFTISRDNAKNTVYLQMNSLKPEDTAVYYCAAVNKSGTYVEYDYWGQGTQVTVSS	low polyreactivity
QVQLVESGGGLVQAGGSLRLSCAASGSTFDKNAMGWYRQEPGKERELVAAINNGGGTTYYADSVKGRFTISRDNAKNTVYLQMNSLKPEDTAVYYCAAVGKAYWSDYQYRYYYWGQGTQVTVSS	low polyreactivity
QVQLVESGGGLVQAGGSLRLSCAASGSTFDKYAMGWYRQAPGKDRELVAAITWGGGSTYYADSVKGRFTISRDNAKNTVYLQMNSLKPEDTAVYYCAAEQGSSVLYDSWGQGTQVTVSS	low polyreactivity
QVQLVESGGGLVQAGGSLRLSCAASGSTFDNYVMGWYRQAPGKERELVAAISRRGGNTYYADSVKGRFTISRDNAKNTVYLQMNSLKPEDTAVYYCAADPYGYGHWGDYWGQGTQVTVSS	low polyreactivity
QVQLVESGGGLVQAGGSLRLSCAASGSTFDPNVMGWYRQAPGKERELVAGITWRGGRTYYADSVKGRFTISRDNAKNTVYLQMNSLKPEDTAVYYCNAEDWTRKYDYWGQGTQVTVSS	high polyreactivity
QVQLVESGGGLVQAGGSLRLSCAASGSTFDPYGMGWYRQAPGKERELVAAITSSGRTNYADSVKGRFTISRDNAKNTVYFQMNSLKPEDTAVYYCATRKERYFYRCYEYWGQGTQVTVSS	low polyreactivity
QVQLVESGGGLVQAGGSLRLSCAASGSTFDQYGMGWYRQAPGKERELVAAITSVGGTNYADSVKGRFTISRDNAKNTVYLKMNSLKPEDTAVYYCAAGSVSQYDSWGQGTQVTVSS	low polyreactivity
QVQLVESGGGLVQAGGSLRLSCAASGSTFDRYTMGWYRQAPGKERELVAAISISGGSTYYADSVKGRFTISRDNAKNTVYLQMNSLKPEDTEVYYCAARLDTVTDYYYWGQGTQVTVSS	low polyreactivity
QVQLVESGGGLVQAGGSLRLSCAASGSTFDSNAMGWYRQAPGKERELVAASDWSGGSTYYADSVKGRFTISRDNAKNTVYLQMNSLNPEDTGVYYGDADDSSINYGDFDYWGQGTQVTVTS	low polyreactivity
QVQLVESGGGLVQAGGSLRLSCAASGSTFDSNDMGWSRQAPGKERELVAAITWSGGSTYYADSVKGRFTISRDNAKNTVYLQMNSLKPEDTAVYYCAATSGRAFKYDYWGQGTQVTVSS	high polyreactivity
QVQLVESGGGLVQAGGSLRLSCAASGSTFDSNVIGWYRQAPGKERELVAAITWSGGSTYYADSVKGRFTISRDNAKNTVYLQMNSLKPEDTAVYYCAARHYPRYGNRRMYYWGQGTQVTVSS	high polyreactivity
QVQLVESGGGLVQAGGSLRLSCAASGSTFDSNVMGCYRQAPGKERELVAVINGSGSNTYYADSVKGRFTISRDNAKNTVYLQMNSLKPEDTAVYYCAARVYVSRSKRLNYWGQGTQVTVSS	high polyreactivity
